# Target: T1, YycF (Staphylococcus aureus (ATCC29213?)) (UniProt Q9RDT5)
# T1 sequence: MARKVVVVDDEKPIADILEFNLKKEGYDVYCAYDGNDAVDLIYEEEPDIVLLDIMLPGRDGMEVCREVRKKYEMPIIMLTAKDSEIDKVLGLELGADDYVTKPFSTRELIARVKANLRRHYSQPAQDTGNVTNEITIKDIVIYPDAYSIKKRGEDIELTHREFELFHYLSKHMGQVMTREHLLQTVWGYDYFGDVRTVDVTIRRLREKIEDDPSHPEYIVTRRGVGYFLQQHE
# Assay: EMSA
# Details: binding buffer not stated
sequence,measurement,value
TGTGAAATATCAATTTGATTGAAAATTAGACAAAAATAAAGAAATGACTTCAACATAATCATCAAAGTCATTTCGTTGAGTTGACTACTGCCAAGATAACATCGTCACGACTAGGACATTGAATTATGTCCCAGACTCATCGACT (double strand) [PcodY (codY promoter region)],binding,binds
